In article PMC4805503 (Traffic (Copenhagen, Denmark), 2016):
Changes are numbered by the printed parent chain. In names and notes the source's numbering stands.

How the values were obtained:
tepsin (Homo sapiens) = tepsin (Homo sapiens) (UniProt Q96N21); conditions: cited from earlier work
[1] = target: T1, AP4 β4 C-terminal appendage domain (residues 612–739), wild type (UniProt Q9Y6B7 612-739); test: pull-down
T1 sequence (looked up): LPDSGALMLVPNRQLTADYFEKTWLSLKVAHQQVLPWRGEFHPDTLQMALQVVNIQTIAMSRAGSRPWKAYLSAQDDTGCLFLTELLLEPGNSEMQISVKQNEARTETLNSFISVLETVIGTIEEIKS

[2] = target: T1, AP4 β4 C-terminal appendage domain …; test: ITC

For “AP4 ε appendage domain (from UniProt Q9UPM8)”, which Kd (tepsin (Homo sapiens)) is on record?
Its Kd is 3000 nM.

B1: GST-tepsin (residues 450–525) (domain or fragment, UniProt Q96N21 450-525, looked up)
chain: PGGTDSPKRGPSSCAWSRDSLFAGMELVACPRLVGAGAAAGESCPDAPRAPQTSSQRTAAKEPPGSEPSAFAFLNA
Does B1 bind [1]?
Result: binds

B2: tepsin C-terminal fragment (residues 450–500), GST removed (domain or fragment, UniProt Q96N21 450-500, looked up)
chain: PGGTDSPKRGPSSCAWSRDSLFAGMELVACPRLVGAGAAAGESCPDAPRAP
Which results are given for B2?
Kd [2]: 2900 nM; stoichiometry N [2]: 1

B3: tepsin fragment (residues 450–500) G473I/M474Q, GST removed (domain or fragment, UniProt Q96N21 450-500, looked up)
chain: B2 chain with G24I, M25Q
For B3, which Kd [2] is on record?
The Kd was over 300000 nM.

B4: tepsin fragment (residues 450–500) L470S/F471S, GST removed (domain or fragment, UniProt Q96N21 450-500, looked up)
chain: B2 chain with L21S, F22S
With B4 as the molecule, how does the Kd [2] read?
Its Kd is over 300000 nM.

B5: tepsin fragment (residues 450–500) L476S/V477S, GST removed (domain or fragment, UniProt Q96N21 450-500, looked up)
chain: B2 chain with L27S, V28S
For B5, which “fold weaker binding than wild type” value [2] is on record?
Its value is about 15 fold.
